Experimental data reported in patent publication US20180111996A1.

Columns and labels:
[1] = target: hPD-1/Fc (R & D Systems) (human) (UniProt Q15116); test: protein ELISA, hPD-1/Fc immobilized
[2] = target: human PD-1 (hPD-1) receptor expressed on cells (human) (UniProt Q15116); test: FMAT, blockade of labeled hPD-L1/Fc binding to CHO-hPD-1 cells
[3] = target: human PD-1 (hPD-1) receptor expressed on cells (human) (UniProt Q15116); test: CELISA on CHO-hPD-1 cells
[4] = target: human PD-1 (hPD-1) receptor expressed on cells (human) (UniProt Q15116); test: FACS, blockade of hPD-L1/Fc binding to CHO cells expressing human PD-1
[5] = target: human PD-1 (hPD-1) receptor expressed on cells (human) (UniProt Q15116); test: FMAT, blockade of labeled hPD-L2/Fc binding to CHO-hPD-1 cells
[6] = target: human PD-1 (hPD-1) receptor expressed on cells (human) (UniProt Q15116); test: FACS, blockade of hPD-L1/Fc binding to CHO cells expressing human PD-1; remark: listed apart in the source
[7] = target: hPD-1/Fc (R & D Systems) (human) (UniProt Q15116); test: bio-light interferometry (ForteBio Octet), PD-1/Fc on biosensor

Sequence of hPD-1/Fc (R & D Systems) (human) (Q15116 25-167 limits assumed): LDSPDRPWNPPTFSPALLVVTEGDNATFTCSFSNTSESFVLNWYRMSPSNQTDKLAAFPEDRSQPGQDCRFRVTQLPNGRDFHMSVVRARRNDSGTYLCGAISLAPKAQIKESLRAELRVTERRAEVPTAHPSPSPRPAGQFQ
Sequence of human PD-1 (hPD-1) receptor expressed on cells (human) (Q15116 25-288): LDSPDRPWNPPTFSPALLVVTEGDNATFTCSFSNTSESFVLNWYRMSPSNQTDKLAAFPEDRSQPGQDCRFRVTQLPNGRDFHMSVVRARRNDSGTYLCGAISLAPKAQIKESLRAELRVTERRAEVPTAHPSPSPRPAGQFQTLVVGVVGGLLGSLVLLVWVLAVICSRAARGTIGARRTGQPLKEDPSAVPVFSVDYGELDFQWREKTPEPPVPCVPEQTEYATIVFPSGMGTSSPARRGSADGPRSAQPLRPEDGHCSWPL

EC50 [1]: 0.41 nM
IC50 [2]: > 0.1 nM
EC50 [3]: 0.349 nM
IC50 [4]: > 100 nM
IC50 [5]: 0.044 nM
IC50 [6]: 0.106 nM
Kd [7]: 1.82 nM
koff [7]: 0.00015 s⁻¹
kon [7]: 82400 M⁻¹ s⁻¹
Substance: Anti-PD-1 antibody clone J116 (eBioscience #14-9989)
